This note sets out measurements from paper PMC2149339.

Several values for one entry are separate records, joined by “and”; a condition that tells them apart may be missing. Equal values may be shown once.

Assay [1] deals with COOH-terminal region of dystrophin construct (C2979) (UniProt P11532). The assay is described as follows: co-IP.
In assay [2] the target is COOH-terminal region of utrophin construct (TDRII) (UniProt P46939). The assay is described as follows: co-IP.
Chain of UniProt P46939 (P46939 2753-3432): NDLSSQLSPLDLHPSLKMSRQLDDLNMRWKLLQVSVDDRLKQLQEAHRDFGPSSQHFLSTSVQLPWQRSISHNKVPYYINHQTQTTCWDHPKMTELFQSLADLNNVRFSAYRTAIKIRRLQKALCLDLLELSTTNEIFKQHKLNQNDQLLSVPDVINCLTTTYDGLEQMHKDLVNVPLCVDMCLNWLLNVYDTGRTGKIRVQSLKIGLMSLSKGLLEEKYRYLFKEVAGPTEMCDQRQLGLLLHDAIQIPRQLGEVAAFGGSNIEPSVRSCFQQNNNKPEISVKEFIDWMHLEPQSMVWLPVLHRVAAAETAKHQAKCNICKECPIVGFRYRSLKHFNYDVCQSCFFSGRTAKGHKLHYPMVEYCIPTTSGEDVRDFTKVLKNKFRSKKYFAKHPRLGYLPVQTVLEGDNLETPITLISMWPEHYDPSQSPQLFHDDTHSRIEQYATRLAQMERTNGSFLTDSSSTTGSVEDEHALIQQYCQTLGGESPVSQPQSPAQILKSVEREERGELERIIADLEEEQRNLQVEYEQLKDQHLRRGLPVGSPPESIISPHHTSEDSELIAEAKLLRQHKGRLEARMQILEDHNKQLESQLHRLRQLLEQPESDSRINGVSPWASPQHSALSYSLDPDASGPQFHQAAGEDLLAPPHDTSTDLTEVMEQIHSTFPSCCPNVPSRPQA

Chain of UniProt P11532 (P11532 2980-3685): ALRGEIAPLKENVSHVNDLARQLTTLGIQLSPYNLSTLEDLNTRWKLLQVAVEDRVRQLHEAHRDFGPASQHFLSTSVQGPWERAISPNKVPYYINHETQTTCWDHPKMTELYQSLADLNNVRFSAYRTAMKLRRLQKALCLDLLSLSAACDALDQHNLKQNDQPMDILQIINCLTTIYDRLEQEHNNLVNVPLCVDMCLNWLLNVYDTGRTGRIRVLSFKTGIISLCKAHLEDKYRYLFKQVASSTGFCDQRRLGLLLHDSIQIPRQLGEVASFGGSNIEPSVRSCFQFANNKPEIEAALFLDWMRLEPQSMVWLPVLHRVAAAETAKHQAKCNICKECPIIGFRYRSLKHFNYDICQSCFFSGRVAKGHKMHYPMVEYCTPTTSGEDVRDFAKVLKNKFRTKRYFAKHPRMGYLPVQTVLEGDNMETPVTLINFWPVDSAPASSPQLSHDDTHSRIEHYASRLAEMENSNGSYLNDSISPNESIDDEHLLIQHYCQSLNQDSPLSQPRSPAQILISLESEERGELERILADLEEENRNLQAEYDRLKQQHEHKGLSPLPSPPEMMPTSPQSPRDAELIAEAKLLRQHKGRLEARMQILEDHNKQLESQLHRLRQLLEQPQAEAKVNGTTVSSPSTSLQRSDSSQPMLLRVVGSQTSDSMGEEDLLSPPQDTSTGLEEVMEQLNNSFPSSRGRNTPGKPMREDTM

As for “α-dystrobrevin-2 construct (exons 1-17B) (natural protein)”, the fold (+Ab over control without antibody) in assay [1] was 3.7 fold and 4.2 fold and 3.3 fold. Besides, in assay [2], the fold (+Ab over control without antibody) is 1.3 fold and 0.9 fold and 1 fold; the fold (+Ab over control without antibody), average of five experiments is 1 fold.
“full-length α-dystrobrevin-1 construct (exons 1-21) (natural protein)” returned a fold (+Ab over control without antibody), average of five experiments in assay [1] of 3 fold. For the same substance, in assay [2], the fold (+Ab over control without antibody) was 3.1 fold and 4 fold and 3 fold; the fold (+Ab over control without antibody), average of five experiments is 3.3 fold.
